Source: patent US20180265558A1

Target: FGFR-1c expressed on BaF3 cells
Assay: cell-based or functional assay

“modified FGF-1 (S116R mutant protein) (from UniProt P05230 16-155) (ligand)” was tested. Which mitogenic potency on BaF3 cells expressing FGFR-1c, relative to wild-type FGF-1 (fold against wild-type FGF-1) did it give?
Its mitogenic potency on BaF3 cells expressing FGFR-1c, relative to wild-type FGF-1 (fold against wild-type FGF-1) is 10.
